Test results published in PMC2782731.

Assays:
[1] = substrate: CC1=C(/C=C/C(C)=C/C=C/C(C)=C/C=O)C(C)(C)CC(O)C1; assay: HPLC of 3-hydroxyretinol formed, microsomes of Sf9 cells; type: biochemical, Drosophila melanogaster; details: apparent; 1 mM NADPH; BSA-solubilized substrate; ambient temperature; reduction
[2] = substrate: CC1=C(/C=C/C(C)=C/C=C/C(C)=C/C=O)C(C)(C)CCC1; assay: HPLC of retinol formed, microsomes of Sf9 cells; type: biochemical, Drosophila melanogaster; details: apparent; 1 mM NADPH; BSA-solubilized substrate; ambient temperature; reduction

B1: CG3842 (Drosophila melanogaster) (protein)
chain: MSEAATPPGSVPGTVFPPGFDPTAESVEKTLCFRGFWAWAVLIFLIVLGILLFMWLLRKCIQGPAYRKANRIDGKVVIVTGCNTGIGKETVLELAKRGARVYMACRDPGRCEAARLDIMDRSRNQQLFNRTLDLGSLQSVRNFVERFKAEESRLDILINNAGVMACPRTLTADGFEQQFGVNHLGHFLLTNLLLDRLKHSSPSRIVVVSSAAHLFGRINREDLMSEKNYSKFFGAYSQSKLANILFTLKLSTILKDTGVTVNCCHPGVVRTEINRHFSGPGWMKTALQKGSLYFFKTPKAGAQTQLRLALDPQLEGSTGGYYSDCMRWPLFPWVRNMQTADWLWRESEKLLGLPPLEPPPPVQSPTQNGNGTQNGNGSSSASASASSNNPASREMQSVETVVVNRS
- Km [1]: 4.1 ± 0.1 µM
- Vmax [1]: 0.025 µmol/min/mg
- Km [2]: 0.27 ± 0.05 µM
- Vmax [2]: 0.007 µmol/min/mg

B2: CG2070 (Drosophila melanogaster) (protein)
chain: MSAPTDYLFCPLAYGSALSAIGIYLLRQYMQGGQFTTKTNETGRVAIVTGCNQGIGKETVLELARRGATVYMACRDMKKCENARREIIKATNNQNIFARQLDLCSMKSIRNFAAGFKREQNKLHILINNAGIMDCPKMLTEDGFEMQIGVNHMGHFLLTLLLLDVLKSSAPSRVVVLSSIAHRFGRIKRDDLNSEKSYDRKMAYCQSKLANVLFTRELAKRLSGTGVTVNALHPGVVNTELFRNTPFLGSWFGKLLIAPIIWIFIKTARNGAQTTLYAALDPSLEKVSGRYFSDCKQKHVGSAAQYDDDAQFLWAESEKWTGINI
- Km [2]: 0.4 ± 0.1 µM
- Vmax [2]: 0.021 µmol/min/mg

B3: CG2065 (Drosophila melanogaster) (protein)
chain: MQGGQFTKQTDETGKVFIVTGANTGIGKETVLEIAKRGGTVYMACRDMNRCEKARQDIIRETNNQNIFSRELDLSSLESIRKFAAGFKKEQDKLHVLINNAGVMHCPRTLTKDGFEMQLGVNHMGHFLLTHLLLDVLKKTAPSRIVNVSSLVHTQGFIKTADLNSEKSYSRIGAYSQSKLANVLFTRELAKRLEGTGVTTNSLHPGAVDTELSRNWKFLKHPFAQLLLKPLLWVLFKTPRNGAQTTLYAALDPALKDVSGLYFSDCQPKEVSAAAQDDKTGKFLWAESEKWTGVNSTKVD
- Km [1]: 4.4 ± 0.6 µM
- Vmax [1]: 0.001 µmol/min/mg
- Km [2]: 0.7 ± 0.1 µM
- Vmax [2]: 0.0016 µmol/min/mg

B4: CG2064 (Drosophila melanogaster) (protein)
chain: MCIFIDCLLSPLIMWPATIGVGIYFLKEYMQGGKFTKDTDETGKVFIVTGANTGIGKETALEIARRGGTVYLACRDMNRCEKARKDIIKETNNQNIFSRELDLSSLDSIRKFVDGFKKEQPKLHVLINNAGVMRCPKTLTKDGYELQLGVNHIGHFLLTNLLLDVLKNSAPSRIVVVSSLAHARGSINVADLNSEKSYDEGLAYSQSKLANVLFTRELAKRLEGSGVTVNALHPGVVDTELARNWAFFQTNLVKFFLKPMIWPLLKTPKSGAQTSIYAALDPELKNISGLYFSDCKPKPVASGALDDKVAKFLWAESEKWTGLDKLEANN
- Km [1]: 2.7 ± 0.9 µM
- Vmax [1]: 0.00045 µmol/min/mg
- Km [2]: 4.2 ± 1.2 µM
- Vmax [2]: 0.0016 µmol/min/mg

B5: CG30491 (Drosophila melanogaster) (protein)
chain: MSLFAFLKSRTAFWLSFTGTTTGLAFFVKDLMQGGQFTKETNETGKVFIVTGANTGIGKETVREIAKRGGTVYMACRNLKKCEEAREEIVLETKNKYVYCRQCDLASQESIRHFVAAFKREQEHLHVLINNAGVMRCPRSLTSDGIELQLGVNHMGHFLLTNLLLDLLKKSSPSRIVNVSSLAHTRGEINTGDLNSDKSYDEGKAYSQSKLANVLFTRELAKRLEGTNVTANALHPGVVDTEIIRHMGFFNNFFAGLFVKPLFWPFVKTPRNGAQTSLYVALDPELEKVTGQYFSDCKLKEMAPAATDTQTAKWLWAVSEKWTKPTMIKIQ
- Km [1]: 3.2 ± 0.3 µM
- Vmax [1]: 0.029 µmol/min/mg
- Km [2]: 0.6 ± 0.1 µM
